The source of these data is US20260055205A1 (published 2026).

Residue numbers refer to the chain shown, from its start.

By Kd is commonly meant a measure of binding affinity in units of concentration. By koff is commonly meant the first-order rate constant of dissociation. Broadly, the kon is a measure of how fast the partners come together.

In assay [1] the target is T1, human PSMA-Fc (human, UniProt Q04609 44-750).
T1 construct: also called Human PSMA-Fc fusion
In words: Octet, PSMA-Fc. How it is done:
Binding affinity of select PSMA PTE variants was tested by Octet.

Assay [2] has as its target T1, human PSMA-Fc. Nature of the assay: Octet. Background: In BLI a coated tip is dipped into the sample, and binding shifts an interference pattern.
Assay [3] concerns the target T2, human PSMA (human, UniProt Q04609 44-750, limits assumed).
T2 construct: also called huPSMA; hPSMA
In words: binding kinetics, uTCE.

In assay [4] the target is T1, human PSMA-Fc. Nature of the assay: Octet. This is another data set of the same source.
Assay [5] concerns the target T2, human PSMA. In words: binding screen.
The target in assay [6] is T3, human CD3 epsilon (human, UniProt P07766 23-126, limits assumed).
T3 construct: also called huCD3e
In words: Octet.

Assay [7] addresses T4, cynomolgus monkey CD3 epsilon (cynomolgus monkey, UniProt Q95LI5 22-117, limits assumed).
T4 construct: also called cyCD3e; cyno CD3
T4 sequence (looked up): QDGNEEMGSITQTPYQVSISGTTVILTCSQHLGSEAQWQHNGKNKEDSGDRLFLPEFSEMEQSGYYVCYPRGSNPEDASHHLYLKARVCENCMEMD
In words: Octet.

Assay [8] deals with T3, human CD3 epsilon. Nature of the assay: Biacore.
For assay [9], the target named is T4, cynomolgus monkey CD3 epsilon. Nature of the assay: Biacore. A general note: Surface plasmon resonance follows binding to a sensor surface in real time, without labels.
The target of assay [10] is T2, human PSMA. Nature of the assay: Octet.
Assay [11] addresses T5, cynomolgus monkey PSMA (cynomolgus monkey, UniProt A0A2K5VNZ0 44-750).
T5 construct: also called cyPSMA; cyno PSMA
Nature of the assay: Octet.

The target in assay [12] is T2, human PSMA. In words: Biacore.
In assay [13] the target is T5, cynomolgus monkey PSMA. In words: Biacore.
Assay [14] addresses T2, human PSMA. In words: relative binding to PSMA, uTCE.

T3 sequence (P07766 23-126 limits assumed): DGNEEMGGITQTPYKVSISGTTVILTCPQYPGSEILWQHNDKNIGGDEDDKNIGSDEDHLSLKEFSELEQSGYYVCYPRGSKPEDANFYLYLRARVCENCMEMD
T1 sequence (Q04609 44-750 limits assumed): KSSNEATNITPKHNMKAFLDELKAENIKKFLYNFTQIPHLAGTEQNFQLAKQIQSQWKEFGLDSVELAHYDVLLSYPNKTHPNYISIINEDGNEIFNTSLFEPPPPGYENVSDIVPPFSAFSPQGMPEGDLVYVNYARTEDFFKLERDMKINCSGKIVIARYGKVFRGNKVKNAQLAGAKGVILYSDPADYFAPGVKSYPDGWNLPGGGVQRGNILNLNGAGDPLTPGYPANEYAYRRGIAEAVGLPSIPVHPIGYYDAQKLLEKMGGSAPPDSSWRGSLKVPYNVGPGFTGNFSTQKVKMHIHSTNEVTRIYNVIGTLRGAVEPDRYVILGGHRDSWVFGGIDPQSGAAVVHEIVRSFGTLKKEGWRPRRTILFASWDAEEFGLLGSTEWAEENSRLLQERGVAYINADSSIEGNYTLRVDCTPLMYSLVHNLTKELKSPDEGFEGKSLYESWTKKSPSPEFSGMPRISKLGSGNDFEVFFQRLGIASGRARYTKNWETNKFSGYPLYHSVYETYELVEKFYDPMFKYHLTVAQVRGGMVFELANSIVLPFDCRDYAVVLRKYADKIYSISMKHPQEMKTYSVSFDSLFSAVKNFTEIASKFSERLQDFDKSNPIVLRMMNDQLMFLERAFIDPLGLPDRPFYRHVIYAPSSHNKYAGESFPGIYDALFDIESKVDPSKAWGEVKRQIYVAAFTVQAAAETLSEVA
T2 sequence (Q04609 44-750 limits assumed): as above

B1: uTCE of AC2591 (PSMA-VHH; CB01H01R3, CD3.23) (bispecific antibody)
chain: LTGPATSGSETPGTEVQLVESGGGSVQAGGSLSLSCVASGRTFGIYVMGWFRQAPGKEREFVAAISWSGSNRLVSDSVKGRFTISRENAKNTIYLQMNGLKPEDTANYFCAASNRLYGRTWYDFNESDYWGQGTQVTVSSGGGGSGGGSELVVTQEPSLTVSPGGTVTLTCRSSNGAVTSSNYANWVQQKPGQAPRGLIGGTNKRAPGTPARFSGSLLGGKAALTLSGVQPEDEAVYYCALWYPNLWVFGGGTKLTVLGATPPETGAETESPGETTGGSAESEPPGEGEVQLLESGGGIVQPGGSLKLSCAASGFTFNTYAMNWVRQAPGKGLEWVARIRSKYNNYATYYADSVKDRFTISRDDSKNTVYLQMNNLKTEDTAVYYCVRHENFGNSYVSWFAHWGQGTLVTVSSGTAEAASASGEAGRSANHTPAG
notes: also called PSMA.2
Take B1: the Kd is 1 nM with human PSMA-Fc [1], 1 nM with human PSMA-Fc [2], 0.79 nM in the assay with human PSMA [3] and 1 nM with human PSMA-Fc [4]. In addition, the results for the koff in the assay with human PSMA-Fc [1], in the assay with human PSMA-Fc [2] and with human PSMA [3] were 0.000122 s⁻¹, 0.00012 s⁻¹ and 8.7e-05 s⁻¹, respectively. Besides, the kon stood at 125000 M⁻¹ s⁻¹ with human PSMA-Fc [1], 120000 M⁻¹ s⁻¹ with human PSMA-Fc [2] and 110000 M⁻¹ s⁻¹ with human PSMA [3].

B2: uTCE of AC3329 (bispecific antibody)
chain: QVQLVESGGGVVQPGRSLRLSCAASGRTFGIYVMGWVRQAPGKEREFVAAISWSGSNRKVSDSVKGRFTISRDNSKNTLYLQMNSLRAEDTAVYYCAASNRLYGRTWYDFNESDYWGQGTQVTVSSGGGGSGGGSELVVTQEPSLTVSPGGTVTLTCRSSNGAVTSSNYANWVQQKPGQAPRGLIGGTNKRAPGTPARFSGSLLGGKAALTLSGVQPEDEAVYYCALWYPNLWVFGGGTKLTVLGATPPETGAETESPGETTGGSAESEPPGEGEVQLLESGGGIVQPGGSLKLSCAASGFTFNTYAMNWVRQAPGKGLEWVARIRSKYNNYATYYADSVKDRFTISRDDSKNTVYLQMNNLKTEDTAVYYCVRHENFGNSYVSWFAHWGQGTLVTVSS
notes: also called PSMA.119
In the assay with human PSMA-Fc [1], B2 gave a Kd of 3.2 nM, a koff of 0.000248 s⁻¹ and a kon of 80000 M⁻¹ s⁻¹. For the same molecule, binding with human PSMA [5] was characterised by a dissociation constant (Kd) of 4.1 nM. Besides, the Kd in the assay with human PSMA-Fc [4] came to 3.2 nM.

B3: uTCE of AC3342 (bispecific antibody)
chain: B2 chain with K59L, R101K
notes: Linker given only as 9 residues; also called PSMA.132
In the assay with human PSMA-Fc [1], B3 showed a Kd of 5.6 nM, a koff of 0.000479 s⁻¹ and a kon of 86600 M⁻¹ s⁻¹. In the assay with human PSMA-Fc [4], the Kd came to 5.6 nM.

B4: uTCE from AC3928 (bispecific antibody)
chain: QVQLVESGGGVVQPGRSLRLSCAASGRTFGIYVWGWFRQAPGKEREFVGAMSWSGSNRKVSDSVKGRFTISRDNSKNTLYLQMNSLRAEDTAVYYCAASNKEYGRTWYDFNESDYWGQGTQVTVSSGGGGSGGGSELVVTQEPSLTVSPGGTVTLTCRSSNGAVTSSNYANWVQQKPGQAPRGLIGGTNKRAPGTPARFSGSLLGGKAALTLSGVQPEDEAVYYCALWYPNLWVFGGGTKLTVLSESATPESGPGTSPGATPESGPGTSESATPEVQLLESGGGIVQPGGSLKLSCAASGFTFNTYAMNWVRQAPGKGLEWVARIRSKYNNYATYYADSVKDRFTISRDDSKNTVYLQMNNLKTEDTAVYYCVRHENFGNSYVSWFAHWGQGTLVTVSS
notes: also called AMX500-P6 uTCE; PSMA.350-CD3.23
On to B4, for which the Kd with human CD3 epsilon [6] is 43 nM; in assay [7], 44.9 nM; with human CD3 epsilon [8], 27.3 nM; in assay [9], 26.6 nM; with human PSMA [10], 13.2 nM; in the assay with cynomolgus monkey PSMA [11], 198 nM. Moreover, the Kd with human PSMA [12] was determined as 19 nM; with cynomolgus monkey PSMA [13] it was 354 nM.

B5: uTCE from AC3445 (bispecific antibody)
chain: B4 chain with W34M, F37V, G49A, M51I, K101R, E102L
notes: also called PSMA.119-CD3.23
As for B5, the Kd with human CD3 epsilon [6] came to 34.8 nM; in assay [7], 40 nM; in the assay with human PSMA [10] it was 6.2 nM; with cynomolgus monkey PSMA [11], 47.5 nM.

B6: uTCE from AC3934 (bispecific antibody)
chain: QVQLVESGGGVVQPGRSLRLSCAASGRTFGIYVWGWVRQAPGKEREFVGAISWSGSNRKVSDSVKGRFTISRDNSKNTLYLQMNSLRAEDTAVYYCAASNKLYGRTWYDFNESDYWGQGTQVTVSSGGGGSGGGSELVVTQEPSLTVSPGGTVTLTCRSSNGAVTSSNYANWVQQKPGQAPRGLIGGTNKRAPGTPARFSGSLLGGKAALTLSGVQPEDEAVYYCALWYPNLWVFGGGTKLTVLSESATPESGPGTSPGATPESGPGTSESATPEVQLVESGGGIVQPGGSLRLSCAASGFTFSTYAMNWVRQAPGKGLEWVGRIRTKRNNYATYYADSVKGRFTISRDDSKNTVYLQMNSLKTEDTAVYYCVRHENFGNSYVSWFAHWGQGTLVTVSS
notes: also called AMX500-P7 uTCE; PSMA.262-CD3.228
B6: the dissociation constant Kd turned out to be 26.6 nM with human CD3 epsilon [6]; 33.7 nM in assay [7]; 9.83 nM with human CD3 epsilon [8]; 10.4 nM in assay [9]; 1.6 nM with human PSMA [10]; 13.1 nM with cynomolgus monkey PSMA [11]. The values for the Kd with human PSMA [12] and in the assay with cynomolgus monkey PSMA [13] were 0.5 nM and 13 nM, respectively.

B7: uTCE of AC3353 (bispecific antibody)
chain: QVQLVESGGGVVQPGRSLRLSCAASGRTFGIYVMGWVRQAPGKEREFVAAISWSGSNRLVSDSVKGRFTISRDNSKNTLYLQMNSLRAEDTAVYYCAASNRLYGRTWYDFNESDYWGQGTQVTVSSGGGGSELVVTQEPSLTVSPGGTVTLTCRSSNGAVTSSNYANWVQQKPGQAPRGLIGGTNKRAPGTPARFSGSLLGGKAALTLSGVQPEDEAVYYCALWYPNLWVFGGGTKLTVLGATPPETGAETESPGETTGGSAESEPPGEGEVQLLESGGGIVQPGGSLKLSCAASGFTFNTYAMNWVRQAPGKGLEWVARIRSKYNNYATYYADSVKDRFTISRDDSKNTVYLQMNNLKTEDTAVYYCVRHENFGNSYVSWFAHWGQGTLVTVSS
notes: also called PSMA.5 (5 mer)
In the assay with human PSMA-Fc [2], B7 showed a Kd of 2.1 nM, a koff of 0.00022 s⁻¹ and a kon of 110000 M⁻¹ s⁻¹. Further, the affinity in the assay with human PSMA-Fc [4], expressed as Kd, was 2.1 nM.

B8: uTCE of AC3356 (bispecific antibody)
chain: QVQLVESGGGVVQPGRSLRLSCAASGRTFGIYVMGWVRQAPGKEREFVAAISWSGSNRLVSDSVKGRFTISRDNSKNTLYLQMNSLRAEDTAVYYCAASNRLYGRTWYDFNESDYWGQGTQVTVSSGGGGSGGGSEVQLLESGGGIVQPGGSLKLSCAASGFTFNTYAMNWVRQAPGKGLEWVARIRSKYNNYATYYADSVKDRFTISRDDSKNTVYLQMNNLKTEDTAVYYCVRHENFGNSYVSWFAHWGQGTLVTVSSGATPPETGAETESPGETTGGSAESEPPGEGELVVTQEPSLTVSPGGTVTLTCRSSNGAVTSSNYANWVQQKPGQAPRGLIGGTNKRAPGTPARFSGSLLGGKAALTLSGVQPEDEAVYYCALWYPNLWVFGGGTKLTVL
notes: CD3.23 in VH-VL order; also called PSMA.5 (domain swap)
In the assay with human PSMA-Fc [2], B8 had a Kd of 2.4 nM, a koff of 0.00018 s⁻¹ and a kon of 76000 M⁻¹ s⁻¹. This molecule showed a dissociation constant (Kd) in the assay with human PSMA-Fc [4] of 2.4 nM.

B9: uTCE of AC2755 (bispecific antibody, V domains shown)
VH: QVQLVESGGGVVQPGRSLRLSCAASGRTFDVYAMGWVRQAPGKERELVAAINWSGSNKFHADSVKGRFTISRDNSKNTLYLQMNSLKTEDTAMYFCAASTRLYGTTWYEFNDSDYWGQGTQVTVSS
notes: TCE with CD3.23; also called VHH41
As to B9, in the assay with human PSMA [14], the binding result is given as “binds”.

B10: uTCE of AC2750 (bispecific antibody, V domains shown)
VH: B9 VH with V37F, E44G, K87R, T88P, M93V
notes: TCE with CD3.23; also called VHH36
As for B10, the binding result in the assay with human PSMA [14] was “binds”.

B11: uTCE of AC3354 (bispecific antibody)
chain: QVQLVESGGGVVQPGRSLRLSCAASGRTFGIYVMGWVRQAPGKEREFVAAISWSGSNRLVSDSVKGRFTISRDNSKNTLYLQMNSLRAEDTAVYYCAASNRLYGRTWYDFNESDYWGQGTQVTVSSGATPPETGAETESPGELVVTQEPSLTVSPGGTVTLTCRSSNGAVTSSNYANWVQQKPGQAPRGLIGGTNKRAPGTPARFSGSLLGGKAALTLSGVQPEDEAVYYCALWYPNLWVFGGGTKLTVLGATPPETGAETESPGETTGGSAESEPPGEGEVQLLESGGGIVQPGGSLKLSCAASGFTFNTYAMNWVRQAPGKGLEWVARIRSKYNNYATYYADSVKDRFTISRDDSKNTVYLQMNNLKTEDTAVYYCVRHENFGNSYVSWFAHWGQGTLVTVSS
notes: also called PSMA.5 (15 mer)
In the assay with human PSMA-Fc [2], B11 showed a Kd of 3.5 nM, a koff of 0.00027 s⁻¹ and a kon of 77000 M⁻¹ s⁻¹. In the assay with human PSMA-Fc [4], this molecule registered a Kd of 3.5 nM.
